In data set [1] the target is T1, Bacillus caldotenax (Bca) UvrA protein.
T1 chain: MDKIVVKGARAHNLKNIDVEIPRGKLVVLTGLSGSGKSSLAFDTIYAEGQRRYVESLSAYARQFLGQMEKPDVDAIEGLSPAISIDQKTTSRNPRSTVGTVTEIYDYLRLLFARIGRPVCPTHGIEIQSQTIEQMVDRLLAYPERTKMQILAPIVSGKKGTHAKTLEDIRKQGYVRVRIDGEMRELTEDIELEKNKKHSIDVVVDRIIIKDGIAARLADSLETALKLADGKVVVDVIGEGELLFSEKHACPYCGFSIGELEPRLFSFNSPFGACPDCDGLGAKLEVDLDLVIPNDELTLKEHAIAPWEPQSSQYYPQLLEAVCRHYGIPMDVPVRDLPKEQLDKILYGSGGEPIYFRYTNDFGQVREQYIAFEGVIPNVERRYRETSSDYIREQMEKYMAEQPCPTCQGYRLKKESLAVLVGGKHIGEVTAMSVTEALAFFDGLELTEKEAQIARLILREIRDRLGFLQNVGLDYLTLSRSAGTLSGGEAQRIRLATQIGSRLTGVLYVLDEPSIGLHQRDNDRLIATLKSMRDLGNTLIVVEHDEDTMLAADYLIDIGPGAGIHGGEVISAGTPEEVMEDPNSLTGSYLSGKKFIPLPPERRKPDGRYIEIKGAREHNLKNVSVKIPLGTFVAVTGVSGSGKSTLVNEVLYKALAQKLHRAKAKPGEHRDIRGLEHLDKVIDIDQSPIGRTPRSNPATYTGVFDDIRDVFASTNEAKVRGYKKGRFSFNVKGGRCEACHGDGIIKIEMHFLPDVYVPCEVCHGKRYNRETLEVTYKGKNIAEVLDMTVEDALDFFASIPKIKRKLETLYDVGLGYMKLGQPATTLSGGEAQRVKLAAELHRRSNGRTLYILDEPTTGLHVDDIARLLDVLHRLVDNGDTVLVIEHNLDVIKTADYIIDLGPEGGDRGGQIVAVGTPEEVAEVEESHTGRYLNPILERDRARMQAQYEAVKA

Data set [2] deals with T2, Escherichia coli UvrB protein.
T2 chain: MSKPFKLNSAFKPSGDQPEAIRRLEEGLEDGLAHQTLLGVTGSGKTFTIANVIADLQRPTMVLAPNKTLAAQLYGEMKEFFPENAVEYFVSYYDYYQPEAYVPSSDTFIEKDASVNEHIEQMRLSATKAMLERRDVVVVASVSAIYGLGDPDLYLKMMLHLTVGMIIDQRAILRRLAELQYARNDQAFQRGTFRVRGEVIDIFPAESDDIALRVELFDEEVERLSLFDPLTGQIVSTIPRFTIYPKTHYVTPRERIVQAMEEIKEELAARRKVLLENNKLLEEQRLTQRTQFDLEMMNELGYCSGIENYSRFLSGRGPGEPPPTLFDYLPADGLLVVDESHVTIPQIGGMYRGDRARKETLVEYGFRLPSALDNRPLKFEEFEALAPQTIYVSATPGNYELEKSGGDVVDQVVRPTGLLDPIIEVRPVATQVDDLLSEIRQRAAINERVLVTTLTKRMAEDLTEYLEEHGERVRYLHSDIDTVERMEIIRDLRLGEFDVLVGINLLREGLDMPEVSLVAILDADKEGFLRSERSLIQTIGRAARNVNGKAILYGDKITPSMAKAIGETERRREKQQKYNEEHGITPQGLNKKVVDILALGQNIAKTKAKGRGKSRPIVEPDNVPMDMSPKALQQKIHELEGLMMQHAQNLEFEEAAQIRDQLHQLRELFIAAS

B1: β-hairpin deletion mutant of the B. caldotenax UvrB protein (Δβh UvrB) (protein)
chain: VEGRFQLVAPYEPQGDQPQAIAKLVDGLRRGVKHQTLLGATGTGKTFTISNVIAQVNKPTLVIAHNKTLAGQLYSELKEFFPHNAVEYFVSYYDYYGAKINDEIDKLRHSATSALFERRDVIIVASVSCIYGLGSPEEYRELVVSLRVGMEIERNALLRRLVDIQYDRNDIDFRRGTFRVRGDVVEIFPASRDEHCIRVEFFGDEIERIREVDALTGEVLGEREHVAIFPASHFVTREEKMRLAIQNIEQELEERLAELRAQGKLLEAQRLEQRTRYDLEMMREMGFCSGIENYSRHLALRPPGSTPYTLLDYFPDDFLIIVDESHVTLPQLRGMYNGDRARKQVLVDHGFRLPSALDNRPLTFEEFEQKINQIIYVSATPGPYELEHSPGVVEQIIRPTGLLDPTIDVRPTKGQIDDLIGEIRERVERNERTLVTTLTKKMAEDLTDYLKEAGIKVAYLHSEIKTLERIEIIRDLRLGKYDVLVGINLLREGLDIPEVSLVAILDADKEGFLRSERSLIQTIGRAARNANGHVIMYADTITKSMEIAIQETKRRRAIQEEYNRKHGIVPRTVKKEIRDVIRATYAAEETEMYEAKPAAAMTKQEREELIRTLEAEMKEAAKALDFERAAQLRDIIFELKAEG
Take B1: in data set [1], the ATPase activity (UvrA + Δβh UvrB + UV-DNA) (mol of ATP hydrolyzed/mol of protein/min) worked out at 29 and the ATPase activity (UvrA + Δβh UvrB) (mol of ATP hydrolyzed/mol of protein/min) amounted to 19.

B2: Bacillus caldotenax (Bca) UvrB protein, wild type (protein)
chain: VEGRFQLVAPYEPQGDQPQAIAKLVDGLRRGVKHQTLLGATGTGKTFTISNVIAQVNKPTLVIAHNKTLAGQLYSELKEFFPHNAVEYFVSYYDYYQPEAYVPQTDTYIEKDAKINDEIDKLRHSATSALFERRDVIIVASVSCIYGLGSPEEYRELVVSLRVGMEIERNALLRRLVDIQYDRNDIDFRRGTFRVRGDVVEIFPASRDEHCIRVEFFGDEIERIREVDALTGEVLGEREHVAIFPASHFVTREEKMRLAIQNIEQELEERLAELRAQGKLLEAQRLEQRTRYDLEMMREMGFCSGIENYSRHLALRPPGSTPYTLLDYFPDDFLIIVDESHVTLPQLRGMYNGDRARKQVLVDHGFRLPSALDNRPLTFEEFEQKINQIIYVSATPGPYELEHSPGVVEQIIRPTGLLDPTIDVRPTKGQIDDLIGEIRERVERNERTLVTTLTKKMAEDLTDYLKEAGIKVAYLHSEIKTLERIEIIRDLRLGKYDVLVGINLLREGLDIPEVSLVAILDADKEGFLRSERSLIQTIGRAARNANGHVIMYADTITKSMEIAIQETKRRRAIQEEYNRKHGIVPRTVKKEIRDVIRATYAAEETEMYEAKPAAAMTKQEREELIRTLEAEMKEAAKALDFERAAQLRDIIFELKAEG
B2: in data set [1], the ATPase activity (UvrA + UvrB + UV-DNA) (mol of ATP hydrolyzed/mol of protein/min) is 22 and the ATPase activity (UvrA + UvrB) (mol of ATP hydrolyzed/mol of protein/min) was 18.3.

B3: Bacillus caldotenax (Bca) UvrA protein (protein)
chain: MDKIVVKGARAHNLKNIDVEIPRGKLVVLTGLSGSGKSSLAFDTIYAEGQRRYVESLSAYARQFLGQMEKPDVDAIEGLSPAISIDQKTTSRNPRSTVGTVTEIYDYLRLLFARIGRPVCPTHGIEIQSQTIEQMVDRLLAYPERTKMQILAPIVSGKKGTHAKTLEDIRKQGYVRVRIDGEMRELTEDIELEKNKKHSIDVVVDRIIIKDGIAARLADSLETALKLADGKVVVDVIGEGELLFSEKHACPYCGFSIGELEPRLFSFNSPFGACPDCDGLGAKLEVDLDLVIPNDELTLKEHAIAPWEPQSSQYYPQLLEAVCRHYGIPMDVPVRDLPKEQLDKILYGSGGEPIYFRYTNDFGQVREQYIAFEGVIPNVERRYRETSSDYIREQMEKYMAEQPCPTCQGYRLKKESLAVLVGGKHIGEVTAMSVTEALAFFDGLELTEKEAQIARLILREIRDRLGFLQNVGLDYLTLSRSAGTLSGGEAQRIRLATQIGSRLTGVLYVLDEPSIGLHQRDNDRLIATLKSMRDLGNTLIVVEHDEDTMLAADYLIDIGPGAGIHGGEVISAGTPEEVMEDPNSLTGSYLSGKKFIPLPPERRKPDGRYIEIKGAREHNLKNVSVKIPLGTFVAVTGVSGSGKSTLVNEVLYKALAQKLHRAKAKPGEHRDIRGLEHLDKVIDIDQSPIGRTPRSNPATYTGVFDDIRDVFASTNEAKVRGYKKGRFSFNVKGGRCEACHGDGIIKIEMHFLPDVYVPCEVCHGKRYNRETLEVTYKGKNIAEVLDMTVEDALDFFASIPKIKRKLETLYDVGLGYMKLGQPATTLSGGEAQRVKLAAELHRRSNGRTLYILDEPTTGLHVDDIARLLDVLHRLVDNGDTVLVIEHNLDVIKTADYIIDLGPEGGDRGGQIVAVGTPEEVAEVEESHTGRYLNPILERDRARMQAQYEAVKA
In the case of B3, in data set [2], the “DNA substrate bound in the form of UvrB-DNA complex (gel mobility shift, Eco UvrB at 100 nM)” value is “more than 50% of the DNA substrate bound in the form of UvrB-DNA complex” and the “DNA substrate bound in the form of UvrB-DNA complex (gel mobility shift, Eco UvrB at 250 nM)” value is listed as “all the BPDE-containing substrate is bound as the UvrB-DNA complex”.
